Data: US20100009390A1, “MUTANT ANTIBODIES WITH HIGH AFFINITY FOR EGFR” (THE REGENTS OF THE UNIVERSITY OF CALIFORNIA, priority 2008, published 2010)
Several values for one entry are separate records, joined by “and”; a condition that tells them apart may be missing. Equal entries are not always repeated. Where two headings read alike, the source gives them in different places.

How the values were obtained:
[1] = target: T1, epidermal growth factor receptor (EGFR) on tumor cells (human, UniProt P00533 25-1210); assay: flow cytometry, soluble monomeric scFv on A431 cells, 4 C, equilibrium
T1 construct: whole, on cells; also called EGFR on A431 cells; EGFR on MDAMB468 cells
Method: (§1) Cell binding was performed at 4° C. in FACS buffer in a volume calculated to ensure fivefold scFv excess and for a duration calculated to ensure that the reaction had reached equilibrium. After two washes with 200 μL of FACS buffer, cell-bound scFv was detected by the addition of 100 μl of 1 μg/ml biotinylated His probe (Santa Cruz Biotech.) and a 1:800 (v/v) dilution of streptavidin-PE (Biosource). After incubation at 4° C. for 30 min, the cells were washed twice and resuspended in PBS containing 4% (v/v) paraformaldehyde. Fluorescence was measured by flow cytometry in a FACS LSRII instrument (Becton Dickinson), and the median fluorescence intensity (MFI) values were fit to the equation: […]
(§2) To generate soluble scFv, the scFv genes were subcloned from pYD2 into the bacterial secretion vector pSYN1 (Schier et al (1995) Immunotechnology, 1:73-81), which directed the scFv to the bacterial periplasm using the pelB leader. The scFv was harvested from the bacterial periplasm and purified by immobilized metal-affinity chromatography as described (Id.). […] To ensure that the KD of monovalent scFv was determined, gel-filtration chromatography was performed as described (Schier and Marks (1996) Hum. Antibodies Hybridomas: 7: 97-105) to separate native monovalent scFv from dimeric scFv and aggregated scFv. scFv was used for cellular KD measurements immediately after gel-filtration.

[2] = target: T2, A431 cells expressing EGFR (Homo sapiens, UniProt P00533); assay: Measurement of scFv affinity for cells expressing EGFR (flow cytometry); type: binding; settings: soluble monovalent scFv, 4° C.
T2 construct: Human squamous carcinoma A431 cells expressing EGFR; endogenous in cells; host or cells: A431 epidermal (squamous) carcinoma cells
Method: Human squamous carcinoma A431 cells expressing EGFR were grown to 80-90% confluence in RPMI medium supplemented with 10% fetal bovine serum and harvested by trypsinization. […] Cell binding was performed at 4° C. in FACS buffer in a volume calculated to ensure fivefold scFv excess and for a duration calculated to ensure that the reaction had reached equilibrium. After two washes with 200 μL of FACS buffer, cell-bound scFv was detected by the addition of 100 μl of 1 μg/ml biotinylated His probe (Santa Cruz Biotech.) and a 1:800 (v/v) dilution of streptavidin-PE (Biosource). After incubation at 4° C. for 30 min, the cells were washed twice and resuspended in PBS containing 4% (v/v) paraformaldehyde. Fluorescence was measured by flow cytometry in a FACS LSRII instrument (Becton Dickinson), and the median fluorescence intensity (MFI) values were fit to the equation:
MFI=MFImin+MFImax([Ab]/(KD+[Ab])
using the software program Kaleidagraph as described previously (Benedict et al. (1997) J. Immunol. Methods, 201: 223-231).

biotinylated EGFR-ECD = target: T3, biotinylated EGFR-ECD (Homo sapiens, UniProt P00533); assay: Yeast-displayed scFv affinity for biotinylated EGFR-ECD by flow cytometry; type: binding; settings: scFv displayed on yeast; EGFR-ECD only 10% immunoreactive; read-out: KD for biotin-EGFR ECD
T3 construct: Recombinant EGFR-ECD was expressed in HEK293 cells; biotin (chemical label, NHS-sulfo-LC-biotin on amines); made in house; host or cells: HEK293 cells
Method: (§3) Generally, six to eight different concentrations of biotinylated EGFR were used to span a range of concentrations from ten times above to ten times below the KD. Incubation volumes, times and yeast numbers were chosen to ensure that the studies were done in at least fivefold antigen excess and that equilibrium had been achieved (Razai et al. (2005) J. Mol. Biol. 351: 158-169). For anti-EGFR scFv, […] in 50 μl were incubated with biotinylated EGFR-ECD for 1 h at room temperature. […] Only yeast displaying scFv (as determined by binding of SV5 mAb) were gated for affinity measurements.

[3] = test system: EGFR-over-expressing MDAMB468 cells; assay: Internalization/uptake of anti-EGFR immunoliposomes (microscopy, flow cytometry); type: cell-based, Human; settings: 74 scFv/liposome; for endocytosis of ILs by fluorescence microscopy: MDAMB468
Method: (§4) scFv-mediated internalization of fluorescent immunoliposomes was analyzed and quantified by microscopy and flow cytometry. C10 scFv fragments were inserted into liposomes at ratios of 5, 10, 15, 30 and 60 μg scFv/μmol phospholipid (Mamot et al. (2003) Cancer Res. 63: 3154-3161). scFv densities of 16, 32, 48, 96 and 192 scFv/liposome were calculated on the basis of the molecular mass of scFv (26 kDa) and the approximate number of phospholipid molecules/liposome (80,000). The conjugation technology for scFv to Mal-PEG-DSPE is remarkably reproducible with an efficiency of 77.3(±3.1) % (range 75-82% over six batches) (Nellis et al. (2005) Biotechnol. Prog. 21: 205-220). […] For microscopy studies, 150,000 cells were incubated with 50 μM PL of untargeted and EGFR-targeted ILs labeled with DiIC18(3)-DS in a 12-well plate for 2 h at 37° C., followed by washing with PBS and further incubation at 37° C. for 2 h. The cells were then analyzed by using an inverted fluorescence microscope (Nikon Eclipse, TE300) with a 540/25 nm band-pass filter for excitation and a long-pass filter at 565 nm for emission. For quantitative uptake of immunoliposomes, 250,000 cells were incubated with EGFR-targeted ILs labeled with ADS645 in a six-well plate for 2 h at 37° C., washed with PBS, removed in trypsin solution and fluorescence quantified with a FACSAria instrument (Beckton Dickinson). To determine the effect of EGF competition on internalization of EGFR-targeted ILs, IL internalization was quantified as described above, except that 50 μM targeted ILs and cells were incubated with EGF concentrations ranging from 0.2-25 nM. ANOVA (analysis of variance) was used to analyze the statistical differences of the quantified uptake.

[4] = target: T4, MDAMB468 cells expressing EGFR (Homo sapiens, UniProt P00533); assay: Immunoliposome binding affinity for cells expressing EGFR (flow cytometry); settings: read-out: Apparent KD of immunoliposomes
T4 construct: Human breast cancer MDAMB468 cells expressing EGFR; endogenous in cells; host or cells: MDAMB468 breast carcinoma cells
Method: Human breast cancer MDAMB468 cells expressing EGFR were grown to 80-90% confluence in L15 medium supplemented with 10% FBS and harvested by trypsinization. ILs labeled with DiIC18(3)-DS were incubated overnight with 10^4 cells at concentrations of IL ranging from 0.31-2.5 nM. The concentration of IL was converted from the concentration of phospholipid on the basis of the approximate number of phospholipid molecules per liposome (80,000). Cell binding was performed at 4° C. in FACS buffer in adequate volume to ensure a fivefold excess of ILs and that the reaction had come to equilibrium. After two washes with 200 μl of FACS buffer, the amount of cell-bound ILs was quantified by flow cytometry in a FACS LSRII (Becton Dickinson). Data analysis was the same as for the measurement of scFv KD.

MDAMB231 cells = assay: Uptake of EGFR immunoliposomes into cells of lower EGFR density; type: cell-based, human; settings: for IL uptake into MDAMB231 cells compared to A431 cells: all scFv densities studied, 480,000 EGFR/cell
Method: as §4
To determine the impact of receptor density on IL uptake, we measured the uptake of the different ILs into MDAMB231 cells which express 480,000 EGFR/cell as determined by flow cytometry using Quantum Simply Cellular anti-Human IgG beads (Bangs Laboratories Inc.). […] Uptake into MDAMB231 cells increased with increasing scFv density, reaching a plateau at an IL scFv density of 74 scFv/IL for P2/4 scFv and at 37 scFv/IL for 2224 scFv (FIG. 6C).

[5] = target: MDAMB468 cells expressing intact EGFR (Homo sapiens, UniProt P00533); settings: EGF competition
[6] = target: T5, biotinylated recombinant EGFR-ECD (UniProt P00533 25-645, limits assumed, biotinylated with NHS-sulfo-LC-biotin); assay: flow cytometry, yeast-displayed scFv, biotinylated EGFR-ECD, equilibrium
T5 construct: extracellular domain; The claims speak of human EGFR; also called biotin-EGFR ECD; biotinylated EGFR
Method: as §3

[7] = target: T1, epidermal growth factor receptor (EGFR) …; assay: flow cytometry, soluble scFv on A431 cells; this end is tied to P3/5 through the KD values of Table 2
Method: as §1, with “After” for “Cell binding was performed at 4° C. in FACS buffer in a volume calculated to ensure fivefold scFv excess and for a duration calculated to ensure that the reaction had reached equilibrium. After”
as §2

B1: anti-EGFR scFv C10 (scFv, V domains shown)
VH: EVQLVQSGAEVKKPGSSVKVSCKASGGTFSSYAISWVRQAPGQGLEWMGGIIPIFGTANYAQKFQGRVTITADESTSTAYMELSSLRSEDTAVYYCAREEGPYCSSTSCYGAFDIWGQGTLVTVSS
VL: QSVLTQDPAVSVALGQTVKITCQGDSLRSYFASWYQQKPGQAPTLVMYARNDRPAGVPDRFSGSKSGTSASLAISGLQSEDEADYYCAAWDDSLNGYLFGAGTKLTVL
notes: Soluble monomeric scFv from pSYN1 in E. coli (Ni-NTA purified, detected with a His probe) in the assays on cells; also called C10 scFv; wild-type C10 scFv
Q: B1 was tested. Which Kd [1] did it give?
A: 264 nM

B2: P2/4: C10 scFv mutant, Gly to Ala in VH CDR3 and Pro to Ala in VL FR1; SEQ ID NO:5 (protein)
scFv: EVQLVQSGAEVKKPGSSVKVSCKASGGTFSSYAISWVRQAPGQGLEWMGGIIPIFGTANYAQKFQGRVTITADESTSTAYMELSSLRSEDTAVYYCAREEGPYCSSTSCYAAFDIWGQGTLVTVSS
modifications: Variable chain of single chain antibody.
Q: For B2, which Kd [2] is on record?
A: 15 nM and 15.4 nM

Q: And the Kd (biotinylated EGFR-ECD)?
A: 1800 nM

Q: And the “IL uptake greater compared to C10” value ([3]; IL 0.63 nM, flow cytometry)?
A: 24%

Q: And the “endocytosis of ILs by fluorescence microscopy” value [3]?
A: endocytosed efficiently

Q: What about the Kd ([4]; 37 scFv/liposome) of the same molecule?
A: 2.04 nM

Q: And the Kd ([4]; 74 scFv/liposome)?
A: 0.4 nM

Q: What about the Kd ([4]; 148 scFv/liposome) of the same molecule?
A: 0.18 nM

Q: What about the “IL scFv density at which uptake into MDAMB231 cells reaches a plateau” value (MDAMB231 cells) of the same molecule?
A: 74 scFv/IL

Q: And the “IL uptake into MDAMB231 cells compared to A431 cells” value (MDAMB231 cells)?
A: significantly less uptake

B3: P3/5: C10 scFv mutant from the P3 sort gate; SEQ ID NO:11 (protein)
scFv: EVQLVQSGAEVKKPGSSVKVSCKASGGTFSSYAISWVRQAPGQGLEWVGGIIPIFGTANYAQKFQGRVKITADESASTAYMELSSLRSEDTAVYYCAREEGPYCSSTSCYGAFDIWGQGTLVTVSS
modifications: Variable chain of single chain antibody.
Q: Which Kd [2] does the source give for B3 here?
A: 88 nM

B4: 2224: combined mutant scFv: P2/2 with the VH CDR3 Gly to Ala mutation from P2/4; SEQ ID NO:17 and 24 (protein)
scFv: QSVLTQDPAVSVALGQTVKITCQGDSLRSYLASWYQQKPGQAPTLVTYARNDRPAGVPDRFSGSKSGTSASLAISGLQSEDEADYYCAAWDDSLNGYLFGAGTKLTVL
modifications: Variable chain of single chain antibody.
Q: Which “IC50 of ILs less than the scFv IC50” value [5] does the source give for B4 here?
A: 20 fold

Q: And the “difference in IL uptake versus ILs from C10 or P2/4 scFv” value ([3]; IL 0.63 nM, flow cytometry)?
A: no statistically significant difference

Q: And the “endocytosis of ILs by fluorescence microscopy” value [3]?
A: endocytosed efficiently

Q: And the “IL scFv density at which uptake into MDAMB231 cells reaches a plateau” value (MDAMB231 cells)?
A: 37 scFv/IL

Q: And the “IL uptake into MDAMB231 cells compared to A431 cells” value (MDAMB231 cells)?
A: significantly less uptake

B5: C10 mutant scFv P2/2 (scFv, V domains shown)
VH: EVQLVQSGAEVKKPGSSVKVSCKASGGTFSSYAIGWVRQAPGQGLEWMGGIIPIFGIANYAQKFQGRVTITADESTSSAYMELSSLRSEDTAVYYCAREEGPYCSSTSCYGAFDIWGQGTLVTVSS
VL: QSVLTQDPAVSVALGQTVKITCQGDSLRSYFASWYQQKPGQAPTLVMYARNDRPAGVPDRFSGSKSGTSASLAISGLQPEDEADYYCAAWDDSLNGYLFGAGTKLTVL
notes: soluble His-tagged monomeric scFv on cells
Q: Which Kd [6] does the source give for B5 here?
A: 1800 nM

Q: What about the Kd [1] of the same molecule?
A: 17 nM

B6: C10 mutant scFv P3/5 (scFv, V domains shown)
VH: EVQLVQSGAEVKKPGSSVKVSCKASGGTFSSYAISWVRQAPGQGLEWVGGIIPIFGTANYAQKFQGRVKITADESASTAYMELSSLRSEDTAVYYCAREEGPYCSSTSCYGAFDIWGQGTLVTVSS
VL: QSVLTQDPAVSVALGQTVKITCQGDSLRSYLASWYQQKPGQAPTLVTYARNDRPAGVPDRFSGSKSGTSASLAISGLQSEDEADYYCAAWDDSLNGYLFGAGTKLTVL
notes: as for B5
Q: Which results are given for B6?
A: Kd [1]: 88.2 nM; fold improvement in affinity compared to C10 scFv [7]: 3 to 18 fold

B7: combined C10 mutant scFv 2224 (scFv, V domains shown)
VH: EVQLVQSGAEVKKPGSSVKVSCKASGGTFSSYAIGWVRQAPGQGLEWMGGIIPIFGIANYAQKFQGRVTITADESTSSAYMELSSLRSEDTAVYYCAREEGPYCSSTSCYAAFDIWGQGTLVTVSS
VL: QSVLTQDPAVSVALGQTVKITCQGDSLRSYFASWYQQKPGQAPTLVMYARNDRPAGVPDRFSGSKSGTSASLAISGLQPEDEADYYCAAWDDSLNGYLFGAGTKLTVL
notes: P2/2 with the VH CDR3 Gly to Ala substitution of P2/4; soluble His-tagged monomeric scFv on cells
Q: Which Kd [6] does the source give for B7 here?
A: 600 nM
